Test results taken from patent US20170275666A1, “Methods for Preparing Rebaudioside I and Uses” (The Coca-Cola Company, priority 2014, published 2017).
Residue numbers refer to the chain shown, from its start.

B1: UGT76G1var36: UGT76G1 variant, mutations F265L_L379A_V396F (protein, UniProt Q6VAB4 1-458, looked up, variant F265L L379A V396F)
UDP-glycosyltransferase 76G1: MENKTETTVRRRRRIILFPVPFQGHINPILQLANVLYSKGFSITIFHTNFNKPKTSNYPHFTFRFILDNDPQDERISNLPTHGPLAGMRIPIINEHGADELRRELELLMLASEEDEEVSCLITDALWYFAQSVADSLNLRRLVLMTSSLFNFHAHVSLPQFDELGYLDPDDKTRLEEQASGFPMLKVKDIKSAYSNWQILKEILGKMIKQTKASSGVIWNSFKELEESELETVIREIPAPSFLIPLPKHLTASSSSLLDHDRTVLQWLDQQPPSSVLYVSFGSTSEVDEKDFLEIARGLVDSKQSFLWVVRPGFVKGSTWVEPLPDGFLGERGRIVKWVPQQEVLAHGAIGAFWTHSGWNSTLESVCEGVPMIFSDFGADQPLNARYMSDVLKVGFYLENGWERGEIANAIRRVMVDEEGEYIRQNARVLKQKADVSLMKGGSSYESLESLVSYISSL
B2: UGT76G1var50: UGT76G1 variant, mutations F22Y_V310I_S375M_F377C (protein, UniProt Q6VAB4 1-458, looked up, variant F22Y V310I S375M F377C)
UDP-glycosyltransferase 76G1: B1 UDP-glycosyltransferase 76G1 with F22Y, L265F, V310I, S375M, F377C, A379L, F396V
B3: UGT76G1var53: UGT76G1 variant, mutations R334K_A352G_P382M_S389E (protein, UniProt Q6VAB4 1-458, looked up, variant R334K A352G P382M S389E)
UDP-glycosyltransferase 76G1: B1 UDP-glycosyltransferase 76G1 with L265F, R334K, A352G, A379L, P382M, S389E, F396V
B4: UGT76G1var49: UGT76G1 variant, mutations F41L_Q266E_T284I_Y397Q (protein, UniProt Q6VAB4 1-458, looked up, variant F41L Q266E T284I Y397Q)
UDP-glycosyltransferase 76G1: B1 UDP-glycosyltransferase 76G1 with F41L, L265F, Q266E, T284I, A379L, F396V, Y397Q
B5: UGT76G1var52: UGT76G1 variant, mutations D301N_I373L_F377C_I407V (protein, UniProt Q6VAB4 1-458, looked up, variant D301N I373L F377C I407V)
UDP-glycosyltransferase 76G1: B1 UDP-glycosyltransferase 76G1 with L265F, D301N, I373L, F377C, A379L, F396V, I407V
B6: UGT76G1var54: UGT76G1 variant, mutations E229A_T284L_R334K_Q342E (protein, UniProt Q6VAB4 1-458, looked up, variant E229A T284L R334K Q342E)
UDP-glycosyltransferase 76G1: B1 UDP-glycosyltransferase 76G1 with E229A, L265F, T284L, R334K, Q342E, A379L, F396V
B7: UGT76G1var51: UGT76G1 variant, mutations K303G_S357C_S389E_V396F (protein, UniProt Q6VAB4 1-458, looked up, variant K303G S357C S389E V396F)
UDP-glycosyltransferase 76G1: B1 UDP-glycosyltransferase 76G1 with L265F, K303G, S357C, A379L, S389E
B8: UGT76G1var2: UGT76G1 variant, mutations S274G_T284I_L379G (protein, UniProt Q6VAB4 1-458, looked up, variant S274G T284I L379G)
UDP-glycosyltransferase 76G1: B1 UDP-glycosyltransferase 76G1 with L265F, S274G, T284I, A379G, F396V
B9: UGT76G1var41: UGT76G1 variant, mutations L246F_A385T_K393G (protein, UniProt Q6VAB4 1-458, looked up, variant L246F A385T K393G)
UDP-glycosyltransferase 76G1: B1 UDP-glycosyltransferase 76G1 with L246F, L265F, A379L, A385T, K393G, F396V
B10: UGT76G1var47: UGT76G1 variant, mutations E229A_T284I_S389E (protein, UniProt Q6VAB4 1-458, looked up, variant E229A T284I S389E)
UDP-glycosyltransferase 76G1: B1 UDP-glycosyltransferase 76G1 with E229A, L265F, T284I, A379L, S389E, F396V
B11: UGT76G1var56: UGT76G1 variant, mutations L246F_A352G_S357N_Q432E (protein, UniProt Q6VAB4 1-458, looked up, variant L246F A352G S357N Q432E)
UDP-glycosyltransferase 76G1: B1 UDP-glycosyltransferase 76G1 with L246F, L265F, A352G, S357N, A379L, F396V, Q432E
B12: UGT76G1var45: UGT76G1 variant, mutations V279I_D301N_S389E (protein, UniProt Q6VAB4 1-458, looked up, variant V279I D301N S389E)
UDP-glycosyltransferase 76G1: B1 UDP-glycosyltransferase 76G1 with L265F, V279I, D301N, A379L, S389E, F396V
B13: UGT76G1var38: UGT76G1 variant, mutations F41L_I295M_F377C (protein, UniProt Q6VAB4 1-458, looked up, variant F41L I295M F377C)
UDP-glycosyltransferase 76G1: B1 UDP-glycosyltransferase 76G1 with F41L, L265F, I295M, F377C, A379L, F396V
B14: UGT76G1var57: UGT76G1 variant, mutations S241I_T263S_L379G_A385T (protein, UniProt Q6VAB4 1-458, looked up, variant S241I T263S L379G A385T)
UDP-glycosyltransferase 76G1: B1 UDP-glycosyltransferase 76G1 with S241I, T263S, L265F, A379G, A385T, F396V
B15: UGT76G1var48: UGT76G1 variant, mutations V394I_Y397E_Q432E (protein, UniProt Q6VAB4 1-458, looked up, variant V394I Y397E Q432E)
UDP-glycosyltransferase 76G1: B1 UDP-glycosyltransferase 76G1 with L265F, A379L, V394I, F396V, Y397E, Q432E
B16: UGT76G1var42: UGT76G1 variant, mutations T263S_Q266S_R334H (protein, UniProt Q6VAB4 1-458, looked up, variant T263S Q266S R334H)
UDP-glycosyltransferase 76G1: B1 UDP-glycosyltransferase 76G1 with T263S, L265F, Q266S, R334H, A379L, F396V
B17: UGT76G1var44: UGT76G1 variant, mutations I335V_S375R_I407V (protein, UniProt Q6VAB4 1-458, looked up, variant I335V S375R I407V)
UDP-glycosyltransferase 76G1: B1 UDP-glycosyltransferase 76G1 with L265F, I335V, S375R, A379L, F396V, I407V
B18: UGT76G1var37: UGT76G1 variant, mutations E229A_L379G_I407V (protein, UniProt Q6VAB4 1-458, looked up, variant E229A L379G I407V)
UDP-glycosyltransferase 76G1: B1 UDP-glycosyltransferase 76G1 with E229A, L265F, A379G, F396V, I407V
B19: UGT76G1var1: UGT76G1 variant, mutations E224A_F314S_R334K (protein, UniProt Q6VAB4 1-458, looked up, variant E224A F314S R334K)
UDP-glycosyltransferase 76G1: B1 UDP-glycosyltransferase 76G1 with E224A, L265F, F314S, R334K, A379L, F396V
B20: UGT76G1var55: UGT76G1 variant, mutations I295M_Q342E_V366I_N409R (protein, UniProt Q6VAB4 1-458, looked up, variant I295M Q342E V366I N409R)
UDP-glycosyltransferase 76G1: B1 UDP-glycosyltransferase 76G1 with L265F, I295M, Q342E, V366I, A379L, F396V, N409R
B21: UGT76G1var39: UGT76G1 variant, mutations F22Y_F41L_V366I (protein, UniProt Q6VAB4 1-458, looked up, variant F22Y F41L V366I)
UDP-glycosyltransferase 76G1: B1 UDP-glycosyltransferase 76G1 with F22Y, F41L, L265F, V366I, A379L, F396V
B22: UGT76G1var40: UGT76G1 variant, mutations T263S_Q266E_S375R (protein, UniProt Q6VAB4 1-458, looked up, variant T263S Q266E S375R)
UDP-glycosyltransferase 76G1: B1 UDP-glycosyltransferase 76G1 with T263S, L265F, Q266E, S375R, A379L, F396V
B23: UGT76G1var46: UGT76G1 variant, mutations F22L_Q266E_I295M (protein, UniProt Q6VAB4 1-458, looked up, variant F22L Q266E I295M)
UDP-glycosyltransferase 76G1: B1 UDP-glycosyltransferase 76G1 with F22L, L265F, Q266E, I295M, A379L, F396V
B24: UGT76G1var43: UGT76G1 variant, mutations S241I_P272A_V279I (protein, UniProt Q6VAB4 1-458, looked up, variant S241I P272A V279I)
UDP-glycosyltransferase 76G1: B1 UDP-glycosyltransferase 76G1 with S241I, L265F, P272A, V279I, A379L, F396V

Test: Directed evolution of UGT76G1, conversion of Rebaudioside D to Rebaudioside M (round 1)
Assay type: biochemical
Details: 0.5 mM Rebaudioside D, 2.5 mM UDP-Glucose, 100 μL fresh lysate, 30° C., pH 7.2
Text: Starting from the amino acid sequence of UGT76G1, as is described in Genbank (AAR06912.1), different mutations at various amino acid positions were identified that could alter the activity of the enzyme for the transformation of Rebaudioside D (Reb D) to Rebaudioside M (Reb M). This list of mutations, designed by DNA2.0 ProteinGPS™ strategy, was subsequently used to synthesize 96 variant genes that contained 3, 4 or 5 of these mutations that were codon-optimized for expression in E. coli. The genes were subcloned in the pET30a+ plasmid and used for transformation of E. coli BL21 (DE3) chemically competent cells. The obtained cells were grown in Petri-dishes on solid LB medium in the presence of Kanamycin. Suitable colonies were selected and allowed to grow in liquid LB medium in tubes. Glycerol was added to the suspension as cryoprotectant and 400 μL aliquots were stored at −20° C. and at −80° C.
These storage aliquots of E. coli BL21(DE3) containing the pET30a+_UGT76G1var plasmids were thawed and added to LBGKP medium (20 g/L Luria Broth Lennox; 50 mM PIPES buffer pH 7.00; 50 mM Phosphate buffer pH 7.00; 2.5 g/L glucose and 50 mg/L of Kanamycine). This culture was allowed to shake in a 96 microtiter plate at 135 rpm at 30° C. for 8 h.
3.95 mL of production medium containing 60 g/L of Overnight Express™ Instant TB medium (Novagen®), 10 g/L of glycerol and 50 mg/L of Kanamycin was inoculated with 50 μL of above described culture. In a 48 deepwell plate the resulting culture was allowed to stir at 20° C. The cultures gave significant growth and a good OD (600 nm; 1 cm) was obtained. After 44 h, the cells were harvested by centrifugation and frozen.
Lysis was performed by addition of Bugbuster® Master mix (Novagen®) to the thawed cells and the lysate was recovered by centrifugation. Activity tests were performed with 100 μL of fresh lysate that was added to a solution of Rebaudioside D (final concentration 0.5 mM), MgCl2 (final concentration 3 mM) and UDP-Glucose (final concentration 2.5 mM) in 50 mM phosphate buffer pH 7.2.
The reaction was allowed to run at 30° C. and samples were taken after 2, 4, 7 and 24 h. to determine conversion and initial rate by HPLC (CAD detection) using the analytical method that was described above for the transformation of Rebaudioside D to Rebaudioside M. The results are depicted in the following table.

Molecule	Conversion Reb D to Reb M after 24 h (%)	initial rate (Reb M area/min)
B1	20.0	8.8E+06
B2	1.9	7.9E+05
B3	9.3	4.1E+06
B4	2.6	1.1E+06
B5	12.9	4.6E+06
B6	0.7	4.3E+05
B7	18.7	9.5E+06
B8	49.3	4.7E+07
B9	0.8	1.4E+06
B10	4.8	2.7E+06
B11	0.4	4.1E+04
B12	38.6	2.3E+07
B13	8.2	3.7E+06
B14	0.8	1.5E+05
B15	47.6	3.8E+07
B16	34.6	2.2E+07
B17	35.3	2.3E+07
B18	39.1	2.8E+07
B19	51.8	5.5E+07
B20	1.0	2.2E+05
B21	7.2	3.3E+06
B22	47.6	3.3E+07
B23	0.6	9.8E+05
B24	19.9	9.4E+06
